T1: capsid shell protein (CSP) λ1 (Mammalian reovirus serotype Dearing 3, UniProt P15024 1-1275)
T1 construct: capsid shell protein λ1 of mammalian reovirus serotype Dearing 3, native in the virus particle; 120 copies in each particle as λ1A/λ1B dimers; five pairs (1-5) around each vertex; also called λ1A; λ1B
T1 sequence: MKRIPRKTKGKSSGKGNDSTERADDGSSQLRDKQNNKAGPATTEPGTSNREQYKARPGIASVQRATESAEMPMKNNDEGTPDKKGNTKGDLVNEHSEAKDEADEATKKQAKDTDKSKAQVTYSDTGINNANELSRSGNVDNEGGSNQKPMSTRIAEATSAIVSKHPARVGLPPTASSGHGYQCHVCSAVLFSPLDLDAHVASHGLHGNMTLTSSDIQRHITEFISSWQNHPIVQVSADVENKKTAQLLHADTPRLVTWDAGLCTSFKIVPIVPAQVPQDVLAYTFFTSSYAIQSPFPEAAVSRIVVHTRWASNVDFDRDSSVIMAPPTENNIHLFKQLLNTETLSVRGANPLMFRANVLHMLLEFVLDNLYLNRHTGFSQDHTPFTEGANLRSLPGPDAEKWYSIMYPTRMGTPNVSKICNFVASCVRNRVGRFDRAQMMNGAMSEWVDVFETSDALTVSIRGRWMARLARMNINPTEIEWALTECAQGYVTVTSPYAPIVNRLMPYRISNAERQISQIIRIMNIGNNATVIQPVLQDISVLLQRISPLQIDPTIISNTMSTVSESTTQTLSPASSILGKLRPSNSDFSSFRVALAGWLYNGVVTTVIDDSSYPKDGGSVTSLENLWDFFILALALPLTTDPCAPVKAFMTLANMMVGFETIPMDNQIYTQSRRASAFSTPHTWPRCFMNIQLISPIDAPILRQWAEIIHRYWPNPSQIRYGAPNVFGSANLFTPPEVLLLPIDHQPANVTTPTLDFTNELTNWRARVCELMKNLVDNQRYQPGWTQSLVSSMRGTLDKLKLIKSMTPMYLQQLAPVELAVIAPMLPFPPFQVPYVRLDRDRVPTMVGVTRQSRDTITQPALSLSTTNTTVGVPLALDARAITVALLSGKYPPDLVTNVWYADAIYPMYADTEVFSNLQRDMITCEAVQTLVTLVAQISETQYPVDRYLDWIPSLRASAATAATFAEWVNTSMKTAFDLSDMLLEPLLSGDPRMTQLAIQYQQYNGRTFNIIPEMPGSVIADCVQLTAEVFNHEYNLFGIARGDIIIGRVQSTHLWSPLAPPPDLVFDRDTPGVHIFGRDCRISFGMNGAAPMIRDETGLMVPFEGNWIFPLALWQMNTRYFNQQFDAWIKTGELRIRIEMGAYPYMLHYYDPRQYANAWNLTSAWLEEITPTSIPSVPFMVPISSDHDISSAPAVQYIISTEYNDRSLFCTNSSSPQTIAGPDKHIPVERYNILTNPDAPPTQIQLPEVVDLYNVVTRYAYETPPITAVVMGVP

B1: RdRp-bound nucleoside triphosphatase μ2 (enzyme)
chain: MAYIAVPAVVDSRSSEAIGLLESFGVDAGADANDVSYQDHDYVLDQLQYMLDGYEAGDVIDALVHKNWLHHSVYCLLPPKSQLLEYWKSNPSAIPDNVDRRLRKRLMLKKDLRKDDEYNQLARAFKISDVYAPLISSTTSPMTMIQNLNRGEIVYTTTDRVIGARILLYAPRKYYASTLSFTMTKCIIPFGKEVGRVPHSRFNVGTFPSIATPKCFVMSGVDIESIPNEFIKLFYQRVKSVHANILNDISPQIVSDMINRKRLRVHTPSDRRAAQLMHLPYHVKRGASHVDVYKVDVVDMLFEVVDVADGLRNVSRKLTMHTVPVCILEMLGIEIADYCIRQEDGMLTDWFLLLTMLSDGLTDRRTHCQYLMNPSSVPPDVILNISITGFINRHTIDVMPDIYDFVKPIGAVLPKGSFKSTIMRVLDSISILGIQIMPRAHVVDSDEVGEQMEPTFEQAVMEIYKGIAGVDSLDDLIKWVLNSDLIPHDDRLGQLFQAFLPLAKDLLAPMARKFYDNSMSEGRLLTFAHADSELLNANYFGHLLRLKIPYITEVNLMIRKNREGGELFQLVLSYLYKMYATSAQPKWFGSLLRLLICPWLHMEKLIGEADPASTSAEIGWHIPREQLMQDGWCGCEDGFIPYVSIRAPRLVIEELMEKNWGQYHAQVIVTDQLVVGEPRRVSAKAVIKGNHLPVKLVSRFACFTLTAKYEMRLSCGHSTGRGAAYSARLAFRSDLA
notes: NTPase μ2 of mammalian reovirus serotype Dearing 3, native in the virus particle; 736 residues in all, 680 modelled; RBD 1-264, NTPase domain 265-607, CTD 608-736; also called NTPase; NTPase μ2
B2: RNA-dependent RNA polymerase (RdRp) λ3 (enzyme)
chain: MSSMILTQFGPFIESISGITDQSNDVFEDAAKAFSMFTRSDVYKALDEIPFSDDAMLPIPPTIYTKPSHDSYYYIDALNRVRRKTYQGPDDVYVPNCSIVELLEPHETLTSYGRLSEAIENRAKDGDSQARIATTYGRIAESQARQIKAPLEKFVLALLVAEAGGSLYDPVLQKYDEIPDLSHNCPLWCFREICRHISGPLPDRAPYLYLSAGVFWLMSPRMTSAIPPLLSDLVNLAILQQTAGLDPSLVKLGVQICLHAAASSSYSWFILKTKSIFPQNTLHSMYESLEGGYCPNLEWLEPRSDYKFMYMGVMPLSAKYARSAPSNDKKARELGEKYGLSSVVGELRKRTKTYVKHDFASVRYIRDAMACTSGIFLVRTPTETVLQEYTQSPEIKVPIPQKDWTGPIGEIRILKDTTSSIARYLYRTWYLAAARMAAQPRTWDPLFQAIMRSQYVTARGGSGAALRESLYAINVSLPDFKGLPVKAATKIFQAAQLANLPFSHTSVAILADTSMGLRNQVQRRPRSIMPLNVPQQQVSAPHTLTADYINYHMNLSPTSGSAVIEKVIPLGVYASSPPNQSINIDISACDASITWDFFLSVIMAAIHEGVASSSIGKPFMGVPASIVNDESVVGVRAARPISGMQNMIQHLSKLYKRGFSYRVNDSFSPGNDFTHMTTTFPSGSTATSTEHTANNSTMMETFLTVWGPEHTDDPDVLRLMKSLTIQRNYVCQGDDGLMIIDGTTAGKVNSETIQNDLELISKYGEEFGWKYDIAYDGTAEYLKLYFIFGCRIPNLSRHPIVGKERANSSAEEPWPAILDQIMGVFFNGVHDGLQWQRWIRYSWALCCAFSRQRTMIGESVGYLQYPMWSFVYWGLPLVKAFGSDPWIFSWYMPTGDLGMYSWISLIRPLMTRWMVANGYVTDRCSTVFGNADYRRCFNELKLYQGYYMAQLPRNPKKSGRAASREVREQFTQALSDYLMQNPELKSRVLRGRSEWEKYGAGIIHNPPSLFDVPHKWYQGAQEAAIATREELAEMDETLMRARRHSYSSFSKLLEAYLLVKWRMCEAREPSVDLRLPLCAGIDPLNSDPFLKMVSVGPMLQSTRKYFAQTLFMAKTVSGLDVNAIDSALLRLRTLGADKKALTAQLLMVGLQESEADALAGKIMLQDVNTVQLARVVNLAVPDTWMSLDFDSMFKHHVKLLPKDGRHLNTDIPPRMGWLRAILRFLGAGMVMTATGVAVDIYLEDIHGGGRSLGQRFMTWMRQEGRSA
notes: RdRp λ3 of mammalian reovirus serotype Dearing 3, native in the virus particle; domains stated as residues 1-386, 387-556 and 595-690, 557-594 and 691-792, 793-901, 902-1267; Part of the transcribing enzyme complex (TEC) with µ2; ten TECs in each particle

Experiment [1] addresses B2. In words: cryo-EM structure; asymmetric (C1) vertex sub-particle reconstructions of native MRV ISVP at 3.3 Å, asymmetric full ISVP at 4.3 Å; isolated virus particles in PBS pH 7.4; proteins assembled in the particle, in situ. The following applies: both partners purified.
The target of experiment [2] is T1, capsid shell protein (CSP) λ1. The description is as above. The following applies: both partners purified.

For the molecule B1, the binding result in experiment [1] and in experiment [2] was “binds” in each case.
As for B2, in experiment [2], the binding result was “binds”.

The values are drawn from PMC8263624, “Asymmetric reconstruction of mammalian reovirus reveals interactions among RNA, transcriptional factor µ2 and capsid proteins” (Nature Communications, 2021).
